Measurements taken from patent US20230032737A1 (University of Pennsylvania, published 2023).

Biological target: T1, purified human factor D (from human plasma) (human, UniProt P00746 26-253)
T1 construct: mature; Also used here for the native factor D of normal human serum in the functional assays; also called human fD; fD
Assay: SPR (Biacore-2000), purified human factor D amine-coupled to CM4 chip
Procedure: FIG. 8 depicts the results of antigen binding affinity measurements for 1F10-5 mAb using Biacore. Purified human factor D was coupled onto CM4 chip using the amine coupling method. Biacore analysis was performed on a Biacore-2000 instrument. The chip was regenerated between each binding using 50 mM NaOH.

T1 sequence (P00746 26-253): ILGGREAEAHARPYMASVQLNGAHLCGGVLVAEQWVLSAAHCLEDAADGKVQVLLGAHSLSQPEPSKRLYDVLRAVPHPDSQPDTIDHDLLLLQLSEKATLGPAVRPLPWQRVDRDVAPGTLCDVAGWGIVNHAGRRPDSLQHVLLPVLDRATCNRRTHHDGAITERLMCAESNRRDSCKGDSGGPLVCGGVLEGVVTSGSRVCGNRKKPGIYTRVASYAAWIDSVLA

Kd: 0.15 nM
B1: mAb 1F10-5 (murine anti-human factor D monoclonal antibody) (antibody, V domains shown)
VH: QIQLVQSGPELKKPGETVKISCKASGYTFTNFEMNWVKQAPGQGLNWMGCINTYTGDPIYADDFRGRFAFSLETSASTAYLQINNLKNEDMATYFCSREGGGDYWGQGTTLTVSS
VL: SIVMTQTPKFLLVSAGDRVTITCKASQSVTNDVAWYQQKPGQSPRLLIYHASNRYTGVPERFTGSGYGTDFTFTINTVQAEDLAVYFCQQDYSSPRTFGGGTKLEIKR
notes: Mouse hybridoma antibody; also called 1F10-mAb; IF10-5
